# Results published in PMC8591539.
# Experiments:
# [1] = biological target: CRL4^DCAF1 (FL) (CUL4A-RBX1-DDB1-DCAF1), unneddylated (human) (UniProt Q13619); assay: SEC-MALS
# [2] = biological target: CRL4^DCAF1 (FL) (CUL4A-RBX1-DDB1-DCAF1), unneddylated (human) (UniProt Q13619); assay: cryo-EM structure
# [3] = biological target: CRL4^DCAF1 (FL) (R1247A) mutant (human) (UniProt Q13619); assay: SEC-MALS
# [4] = biological target: CRL4^DCAF1 (FL)-VPR complex (human | HIV-1) (UniProt Q13619); assay: SEC-MALS
# [5] = biological target: CRL4^DCAF1 (FL)-VPR-UNG2 complex (human | HIV-1 | not stated) (UniProt Q13619); assay: SEC-MALS
# [6] = biological target: CRL4^DCAF1(FL)-MERLIN complex (UniProt Q13619); assay: SEC-MALS
# [7] = biological target: DDB1-DCAF1 (FL) sub-complex (human) (UniProt Q16531); assay: SEC-MALS
# CRL4^DCAF1 (FL) (CUL4A-RBX1-DDB1-DCAF1), unneddylated, sequence (Q13619 whole entry): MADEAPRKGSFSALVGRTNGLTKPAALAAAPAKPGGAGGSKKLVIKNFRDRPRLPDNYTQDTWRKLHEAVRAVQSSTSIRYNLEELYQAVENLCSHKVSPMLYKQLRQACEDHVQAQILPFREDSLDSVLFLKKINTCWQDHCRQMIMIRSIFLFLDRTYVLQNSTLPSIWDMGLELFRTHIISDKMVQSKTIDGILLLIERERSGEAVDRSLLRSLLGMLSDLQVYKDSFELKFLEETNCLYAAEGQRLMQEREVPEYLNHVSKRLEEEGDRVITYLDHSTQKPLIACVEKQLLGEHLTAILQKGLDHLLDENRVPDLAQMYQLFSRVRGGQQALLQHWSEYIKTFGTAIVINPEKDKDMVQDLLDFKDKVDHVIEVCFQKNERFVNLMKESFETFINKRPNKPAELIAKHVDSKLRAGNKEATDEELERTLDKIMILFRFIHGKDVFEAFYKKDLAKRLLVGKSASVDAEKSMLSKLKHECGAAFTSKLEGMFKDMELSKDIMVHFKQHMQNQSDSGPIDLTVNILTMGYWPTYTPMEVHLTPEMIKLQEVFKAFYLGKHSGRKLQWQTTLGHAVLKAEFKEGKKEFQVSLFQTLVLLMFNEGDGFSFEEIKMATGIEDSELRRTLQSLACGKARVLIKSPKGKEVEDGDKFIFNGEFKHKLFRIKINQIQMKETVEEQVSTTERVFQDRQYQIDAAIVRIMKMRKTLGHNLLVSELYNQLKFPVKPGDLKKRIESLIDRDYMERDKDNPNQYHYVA
# CRL4^DCAF1 (FL) (CUL4A-RBX1-DDB1-DCAF1), unneddylated, sequence (P62877 whole entry): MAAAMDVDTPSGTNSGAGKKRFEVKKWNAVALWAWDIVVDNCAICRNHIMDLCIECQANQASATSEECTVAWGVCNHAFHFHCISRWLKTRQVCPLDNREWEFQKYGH
# CRL4^DCAF1 (FL) (CUL4A-RBX1-DDB1-DCAF1), unneddylated, sequence (Q16531 whole entry): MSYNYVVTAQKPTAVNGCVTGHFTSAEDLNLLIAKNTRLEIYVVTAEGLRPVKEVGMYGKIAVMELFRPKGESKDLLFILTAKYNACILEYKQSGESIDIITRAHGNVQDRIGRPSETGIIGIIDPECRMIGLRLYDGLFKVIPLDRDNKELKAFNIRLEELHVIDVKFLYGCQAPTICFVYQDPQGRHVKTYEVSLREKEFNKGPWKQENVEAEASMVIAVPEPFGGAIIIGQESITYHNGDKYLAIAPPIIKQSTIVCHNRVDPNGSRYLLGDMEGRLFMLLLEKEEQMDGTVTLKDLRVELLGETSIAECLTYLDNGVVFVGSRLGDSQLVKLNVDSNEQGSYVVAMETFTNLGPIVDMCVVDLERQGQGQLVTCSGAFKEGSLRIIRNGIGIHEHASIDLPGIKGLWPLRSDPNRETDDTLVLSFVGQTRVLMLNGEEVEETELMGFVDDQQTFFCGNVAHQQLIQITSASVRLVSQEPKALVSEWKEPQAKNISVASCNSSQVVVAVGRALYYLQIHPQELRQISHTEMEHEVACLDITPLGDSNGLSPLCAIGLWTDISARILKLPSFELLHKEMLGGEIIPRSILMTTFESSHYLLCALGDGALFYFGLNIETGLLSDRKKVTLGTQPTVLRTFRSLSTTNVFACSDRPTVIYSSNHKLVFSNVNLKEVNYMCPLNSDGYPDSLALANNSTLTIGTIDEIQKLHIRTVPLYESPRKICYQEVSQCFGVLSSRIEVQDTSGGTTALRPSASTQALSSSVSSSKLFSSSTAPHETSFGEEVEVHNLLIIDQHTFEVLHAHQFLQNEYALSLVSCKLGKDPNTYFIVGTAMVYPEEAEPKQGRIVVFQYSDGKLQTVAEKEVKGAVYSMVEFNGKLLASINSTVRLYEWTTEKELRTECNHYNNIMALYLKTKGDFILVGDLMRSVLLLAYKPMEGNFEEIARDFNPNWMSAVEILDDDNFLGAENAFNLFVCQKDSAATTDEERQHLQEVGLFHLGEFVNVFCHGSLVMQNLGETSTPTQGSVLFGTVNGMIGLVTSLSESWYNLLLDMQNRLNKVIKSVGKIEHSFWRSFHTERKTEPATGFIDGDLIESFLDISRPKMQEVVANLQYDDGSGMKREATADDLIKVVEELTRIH
# CRL4^DCAF1 (FL) (CUL4A-RBX1-DDB1-DCAF1), unneddylated, sequence (Q9Y4B6 whole entry): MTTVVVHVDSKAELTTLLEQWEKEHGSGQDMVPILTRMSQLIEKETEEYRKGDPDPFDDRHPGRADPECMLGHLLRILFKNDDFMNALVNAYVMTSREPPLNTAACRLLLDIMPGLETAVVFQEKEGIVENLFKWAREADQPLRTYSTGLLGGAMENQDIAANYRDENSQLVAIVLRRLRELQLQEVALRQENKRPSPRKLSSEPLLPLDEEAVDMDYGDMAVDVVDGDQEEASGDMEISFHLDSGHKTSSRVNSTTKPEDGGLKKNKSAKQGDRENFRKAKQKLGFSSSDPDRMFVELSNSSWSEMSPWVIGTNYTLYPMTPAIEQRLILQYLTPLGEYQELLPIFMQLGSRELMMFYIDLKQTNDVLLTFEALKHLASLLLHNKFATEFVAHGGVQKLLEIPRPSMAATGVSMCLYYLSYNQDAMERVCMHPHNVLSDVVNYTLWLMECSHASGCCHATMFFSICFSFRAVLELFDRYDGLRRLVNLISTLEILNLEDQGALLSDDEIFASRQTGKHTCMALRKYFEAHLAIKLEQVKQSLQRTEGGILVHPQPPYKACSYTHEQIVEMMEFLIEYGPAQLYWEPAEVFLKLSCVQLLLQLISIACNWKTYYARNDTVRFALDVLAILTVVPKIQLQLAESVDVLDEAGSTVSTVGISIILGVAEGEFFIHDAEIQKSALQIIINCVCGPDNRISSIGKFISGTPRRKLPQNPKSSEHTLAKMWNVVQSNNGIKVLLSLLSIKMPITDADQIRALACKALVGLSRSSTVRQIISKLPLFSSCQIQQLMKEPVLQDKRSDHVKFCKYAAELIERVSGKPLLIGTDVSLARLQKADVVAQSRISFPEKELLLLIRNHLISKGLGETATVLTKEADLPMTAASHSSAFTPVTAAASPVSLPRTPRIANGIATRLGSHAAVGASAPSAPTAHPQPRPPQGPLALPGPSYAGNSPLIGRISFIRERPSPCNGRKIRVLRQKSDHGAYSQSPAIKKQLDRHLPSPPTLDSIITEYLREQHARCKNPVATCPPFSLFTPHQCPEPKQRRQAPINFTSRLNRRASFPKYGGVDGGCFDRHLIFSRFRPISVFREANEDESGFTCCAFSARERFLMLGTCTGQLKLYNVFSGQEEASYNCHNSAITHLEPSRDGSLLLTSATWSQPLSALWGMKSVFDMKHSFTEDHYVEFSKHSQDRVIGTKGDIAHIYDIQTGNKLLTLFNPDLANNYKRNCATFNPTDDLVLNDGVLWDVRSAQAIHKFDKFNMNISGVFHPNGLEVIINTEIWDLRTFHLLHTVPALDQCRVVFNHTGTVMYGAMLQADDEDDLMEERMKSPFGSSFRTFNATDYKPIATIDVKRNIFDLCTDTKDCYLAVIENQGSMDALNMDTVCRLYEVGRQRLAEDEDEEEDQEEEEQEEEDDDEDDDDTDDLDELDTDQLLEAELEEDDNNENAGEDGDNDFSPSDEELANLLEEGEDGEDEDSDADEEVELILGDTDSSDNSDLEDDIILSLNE
substance,measurement,setting,value
"CRL4^DCAF1 (FL) (CUL4A-RBX1-DDB1-DCAF1), unneddylated (from UniProt Q13619;P62877;Q16531;Q9Y4B6) (complex)",stoichiometry N,[1],4
same,stoichiometry N,[2],4
CRL4^DCAF1 (FL) (R1247A) mutant (from UniProt Q13619;P62877;Q16531;Q9Y4B6) (complex),stoichiometry N,[3],2
CRL4^DCAF1 (FL)-VPR complex (from UniProt Q13619;P62877;Q16531;Q9Y4B6;P12520),stoichiometry N,[4],4
CRL4^DCAF1 (FL)-VPR-UNG2 complex (from UniProt Q13619;P62877;Q16531;Q9Y4B6;P12520;P13051-1),stoichiometry N,[5],2
CRL4^DCAF1(FL)-MERLIN complex (from UniProt Q13619;P62877;Q16531;Q9Y4B6;P35240),stoichiometry N,[6],4
DDB1-DCAF1 (FL) sub-complex (from UniProt Q16531;Q9Y4B6),stoichiometry N,[7],2
